Source: US9657062B2, “Ghrelin analogues” (Zealand Pharma A/S, priority 2012, dated 2017)
Bridges are numbered along the chain shown (N, C = ends). [ ]: non-standard residue; d: D form. The star is where a group is joined. Octanoyl = CCCCCCCC(=O)*; Dap = NC[C@H](N)C(=O)O

B1: H-PS-Dap(N-octanoyl)-FL-NH2 (peptide)
peptide: H-PS[Dap](Octanoyl)FL-NH2
SMILES: CCCCCCCC(=O)NC[C@H](NC(=O)[C@H](CO)NC(=O)[C@@H]1CCCN1)C(=O)N[C@@H](Cc1ccccc1)C(=O)N[C@@H](CC(C)C)C(N)=O
B2: H-PS-Dap(N-octanoyl)-FLSPEHSRVSSRKESKKPPAKLSPR-NH2 (peptide)
peptide: H-PS[Dap](Octanoyl)FLSPEHSRVSSRKESKKPPAKLSPR-NH2
SMILES: CCCCCCCC(=O)NC[C@H](NC(=O)[C@H](CO)NC(=O)[C@@H]1CCCN1)C(=O)N[C@@H](Cc1ccccc1)C(=O)N[C@@H](CC(C)C)C(=O)N[C@@H](CO)C(=O)N1CCC[C@H]1C(=O)N[C@@H](CCC(=O)O)C(=O)N[C@@H](Cc1c[nH]cn1)C(=O)N[C@@H](CO)C(=O)N[C@@H](CCCNC(=N)N)C(=O)N[C@H](C(=O)N[C@@H](CO)C(=O)N[C@@H](CO)C(=O)N[C@@H](CCCNC(=N)N)C(=O)N[C@@H](CCCCN)C(=O)N[C@@H](CCC(=O)O)C(=O)N[C@@H](CO)C(=O)N[C@@H](CCCCN)C(=O)N[C@@H](CCCCN)C(=O)N1CCC[C@H]1C(=O)N1CCC[C@H]1C(=O)N[C@@H](C)C(=O)N[C@@H](CCCCN)C(=O)N[C@@H](CC(C)C)C(=O)N[C@@H](CO)C(=O)N1CCC[C@H]1C(=O)N[C@@H](CCCNC(=N)N)C(N)=O)C(C)C
B3: H-GS-S(octanoyl)-FLSPE()HQRK()QQRKESKKPPAKLQPR-OH (peptide)
peptide: H-GSS(Octanoyl)FLSPEHQRKQQRKESKKPPAKLQPR-OH
modifications: lactam 8-12
SMILES: CCCCCCCC(=O)OC[C@H](NC(=O)[C@H](CO)NC(=O)CN)C(=O)N[C@@H](Cc1ccccc1)C(=O)N[C@@H](CC(C)C)C(=O)N[C@@H](CO)C(=O)N1CCC[C@H]1C(=O)N[C@H]1CCC(=O)NCCCC[C@@H](C(=O)N[C@@H](CCC(N)=O)C(=O)N[C@@H](CCC(N)=O)C(=O)N[C@@H](CCCNC(=N)N)C(=O)N[C@@H](CCCCN)C(=O)N[C@@H](CCC(=O)O)C(=O)N[C@@H](CO)C(=O)N[C@@H](CCCCN)C(=O)N[C@@H](CCCCN)C(=O)N2CCC[C@H]2C(=O)N2CCC[C@H]2C(=O)N[C@@H](C)C(=O)N[C@@H](CCCCN)C(=O)N[C@@H](CC(C)C)C(=O)N[C@@H](CCC(N)=O)C(=O)N2CCC[C@H]2C(=O)N[C@@H](CCCNC(=N)N)C(=O)O)NC(=O)[C@H](CCCNC(=N)N)NC(=O)[C@H](CCC(N)=O)NC(=O)[C@H](Cc2c[nH]cn2)NC1=O
B4: H-PS-[NH-CH(n-C10H21)-C(O)]-FLSPEHQRVQQRKESKKPPA-NH2 (peptide)
peptide: H-PS[NH‑CH(n-C10H21)‑C(O)]FLSPEHQRVQQRKESKKPPA-NH2
B5: H-PS-[NH-CH(n-C10H21)-C(O)]-FLSPEHQRVQQRKES-NH2 (peptide)
peptide: H-PS[NH‑CH(n-C10H21)‑C(O)]FLSPEHQRVQQRKES-NH2
B6: H-PS-Dap(N-octanoyl)-FLSPEHQRVQQRKESKKPPA-NH2 (peptide)
peptide: H-PS[Dap](Octanoyl)FLSPEHQRVQQRKESKKPPA-NH2
SMILES: CCCCCCCC(=O)NC[C@H](NC(=O)[C@H](CO)NC(=O)[C@@H]1CCCN1)C(=O)N[C@@H](Cc1ccccc1)C(=O)N[C@@H](CC(C)C)C(=O)N[C@@H](CO)C(=O)N1CCC[C@H]1C(=O)N[C@@H](CCC(=O)O)C(=O)N[C@@H](Cc1c[nH]cn1)C(=O)N[C@@H](CCC(N)=O)C(=O)N[C@@H](CCCNC(=N)N)C(=O)N[C@H](C(=O)N[C@@H](CCC(N)=O)C(=O)N[C@@H](CCC(N)=O)C(=O)N[C@@H](CCCNC(=N)N)C(=O)N[C@@H](CCCCN)C(=O)N[C@@H](CCC(=O)O)C(=O)N[C@@H](CO)C(=O)N[C@@H](CCCCN)C(=O)N[C@@H](CCCCN)C(=O)N1CCC[C@H]1C(=O)N1CCC[C@H]1C(=O)N[C@@H](C)C(N)=O)C(C)C
B7: H-GS-S(octanoyl)-FLSPEHQRVQQRK()ESKE()PPAKLQPR-OH (peptide)
peptide: H-GSS(Octanoyl)FLSPEHQRVQQRKESKEPPAKLQPR-OH
modifications: lactam 16-20
SMILES: CCCCCCCC(=O)OC[C@H](NC(=O)[C@H](CO)NC(=O)CN)C(=O)N[C@@H](Cc1ccccc1)C(=O)N[C@@H](CC(C)C)C(=O)N[C@@H](CO)C(=O)N1CCC[C@H]1C(=O)N[C@@H](CCC(=O)O)C(=O)N[C@@H](Cc1c[nH]cn1)C(=O)N[C@@H](CCC(N)=O)C(=O)N[C@@H](CCCNC(=N)N)C(=O)N[C@H](C(=O)N[C@@H](CCC(N)=O)C(=O)N[C@@H](CCC(N)=O)C(=O)N[C@@H](CCCNC(=N)N)C(=O)N[C@H]1CCCCNC(=O)CC[C@@H](C(=O)N2CCC[C@H]2C(=O)N2CCC[C@H]2C(=O)N[C@@H](C)C(=O)N[C@@H](CCCCN)C(=O)N[C@@H](CC(C)C)C(=O)N[C@@H](CCC(N)=O)C(=O)N2CCC[C@H]2C(=O)N[C@@H](CCCNC(=N)N)C(=O)O)NC(=O)[C@H](CCCCN)NC(=O)[C@H](CO)NC(=O)[C@H](CCC(=O)O)NC1=O)C(C)C
B8: H-PS-Dap(N-octanoyl)-FLSP-NH2 (peptide)
peptide: H-PS[Dap](Octanoyl)FLSP-NH2
SMILES: CCCCCCCC(=O)NC[C@H](NC(=O)[C@H](CO)NC(=O)[C@@H]1CCCN1)C(=O)N[C@@H](Cc1ccccc1)C(=O)N[C@@H](CC(C)C)C(=O)N[C@@H](CO)C(=O)N1CCC[C@H]1C(N)=O
B9: H-PS-Dap(N-octanoyl)-FLSPEHQRVQQRKESKKPPAKLQPR-NH2 (peptide)
peptide: PSSFLSPEHQRVQQRKESKKPPAKLQPR
modifications: Dap(N-octanoyl) at position 3; C-terminal amide (-NH2)
B10: H-GS-S(octanoyl)-FLSPEHE()RVQK()RKESKKPPAKLQPR-OH (peptide)
peptide: H-GSS(Octanoyl)FLSPEHERVQKRKESKKPPAKLQPR-OH
modifications: lactam 10-14
SMILES: CCCCCCCC(=O)OC[C@H](NC(=O)[C@H](CO)NC(=O)CN)C(=O)N[C@@H](Cc1ccccc1)C(=O)N[C@@H](CC(C)C)C(=O)N[C@@H](CO)C(=O)N1CCC[C@H]1C(=O)N[C@@H](CCC(=O)O)C(=O)N[C@@H](Cc1c[nH]cn1)C(=O)N[C@H]1CCC(=O)NCCCC[C@@H](C(=O)N[C@@H](CCCNC(=N)N)C(=O)N[C@@H](CCCCN)C(=O)N[C@@H](CCC(=O)O)C(=O)N[C@@H](CO)C(=O)N[C@@H](CCCCN)C(=O)N[C@@H](CCCCN)C(=O)N2CCC[C@H]2C(=O)N2CCC[C@H]2C(=O)N[C@@H](C)C(=O)N[C@@H](CCCCN)C(=O)N[C@@H](CC(C)C)C(=O)N[C@@H](CCC(N)=O)C(=O)N2CCC[C@H]2C(=O)N[C@@H](CCCNC(=N)N)C(=O)O)NC(=O)[C@H](CCC(N)=O)NC(=O)[C@H](C(C)C)NC(=O)[C@H](CCCNC(=N)N)NC1=O
B11: H-PS-Dap(N-octanoyl)-FLS-NH2 (peptide)
peptide: H-PS[Dap](Octanoyl)FLS-NH2
SMILES: CCCCCCCC(=O)NC[C@H](NC(=O)[C@H](CO)NC(=O)[C@@H]1CCCN1)C(=O)N[C@@H](Cc1ccccc1)C(=O)N[C@@H](CC(C)C)C(=O)N[C@@H](CO)C(N)=O

Molecular target: human growth hormone secretagogue receptor type 1a (human, UniProt Q92847 1-366)
Assay: cell-based or functional assay

Chain of human growth hormone secretagogue receptor type 1a (Q92847 whole entry): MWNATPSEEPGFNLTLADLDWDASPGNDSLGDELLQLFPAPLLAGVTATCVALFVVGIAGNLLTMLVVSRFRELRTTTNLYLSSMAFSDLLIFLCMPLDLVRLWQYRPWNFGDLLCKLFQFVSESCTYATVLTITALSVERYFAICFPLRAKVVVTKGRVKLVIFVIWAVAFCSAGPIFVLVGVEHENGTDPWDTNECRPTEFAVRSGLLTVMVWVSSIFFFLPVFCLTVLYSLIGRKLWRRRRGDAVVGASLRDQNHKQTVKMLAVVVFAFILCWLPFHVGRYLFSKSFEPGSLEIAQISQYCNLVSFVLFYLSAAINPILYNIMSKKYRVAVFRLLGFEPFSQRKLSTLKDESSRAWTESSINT

| Binder | EC50 (nM); Ca2+ induction in HEK293 cells stably expressing the human ghrelin receptor [nM] |
| --- | --- |
| B1 | 1.69 |
| B2 | 0.224 |
| B3 | 0.534 |
| B4 | 0.255 |
| B5 | 0.164 |
| B6 | 0.136 |
| B7 | 1.29 |
| B8 | 0.26 |
| B9 | 0.193 |
| B10 | 0.597 |
| B11 | 1.2 |
